B1: library; numbered along this chain (parent)
chain: MRKPRAAVGSGHRKQAASQEGRQKHAKNNSQAKPSACDGLARQPEEVVLQASVSSYHLFRDVAEVTAFRGSLLSWYDQEKRDLPWRRRAEDEMDLDRRAYAVWVSEVMLQQTQVATVINYYTGWMQKWPTLQDLASASLEEVNQLWAGLGYYSRGRRLQEGARKVVEELGGHMPRTAETLQQLLPGVGRYTAGAIASIAFGQATGVVDGNVARVLCRVRAIGADPSSTLVSQQLWGLAQQLVDPARPGDFNQAAMELGATVCTPQRPLCSQCPVESLCRARQRVEQEQLLASGSLSGSPDVEECAPNTGQCHLCLPPSEPWDQTLGVVNFPRKASRKPPREESSATCVLEQPGALGAQILLVQRPNSGLLAGLWEFPSVTWEPSEQLQRKALLQELQRWAGPLPATHLRHLGEVVHTFSHIKLTYQVYGLALEGQTPVTTVPPGARWLTQEEFHTAAVSTAMKKVFRVYQGQQPGTCMGSKRSQVSSPCSRKKPRMGQQVLDNFFRSHISTDAHSLNSAAQ

Variants of: B1
Assay: 8OG:A repair function score (normalized; synonymous = 0, nonsense = -1) (normalized log-likelihood score); higher = more repair activity (WT-like)
Settings: with 8OG:A DNA repair reporter (GFP) in HEK-293 MUTYH KO cells
Method in brief: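 MUTYH knockout HEK-293 cells carrying lentiviral MUTYH cDNA NNN codon-scan libraries were grown with 10 pg/ml doxycycline and co-transfected with mCherry and a GFP reporter of 8OG:A repair. Viable mCherry+ cells were sorted at 72 h into GFP+ (repair) and GFP− bins, with three replicates per tile, and tile amplicons were sequenced. Rosace fitness scores for each tile were turned into a normalized repair function score anchored on the synonymous and nonsense distributions. Synonymous medians were set to 0 and nonsense medians to -1, and variants below 300 counts per million at the start were dropped.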

Row | Variant | 8OG:A repair function score
1 | MRKPRAAVGSGHRKQAASQEGRQKHAKNNSQAKPSACDGLARQPEEVVLQASVSSYHLFRDVAEVTAFRGSLLSWYDQEKRDLPWRRRAEDEMDLDRRAYAVWVSEVMLQQTQVATVINYYTGWMQKWPTLQDLASASLEEVNQLWAGLGYYSRGRRLQEGARKVVEELGGHMPRTAETLQQLLPGVGRYTAGAIASIAFGQATGVVDGNVARVLCRVRAIGADPSSTLVSQQLWGLAQQLVDPARPGDFNQAAMELGATVCTPQRPLCSQCPVESLCRARQRVEQEQLLASGSLSGSPDVEECAPNTGQCHLCLPPSEPWDQTLGVVNFPRKASRKPPREESSATCVLEQPGALGAQILLVQRPNSGLLAGLWEFPSVTWEPSEQLQRKALLQELQRWAGPLPATHLRHLGEVVHTFPHIKLTYQVYGLALEGQTPVTTVPPGARWLTQEEFHTAAVSTAMKKVFRVYQGQQPGTCMGSKRSQVSSPCSRKKPRMGQQVLDNFFRSHISTDAHSLNSAAQ [S419P] | -0.574
2 | MRKPRAAVGSGHRKQAASQEGRQKHAKNNSQAKPSACDGLARQPEEVVLQASVSSYHLFRDVAEVTAFRGSLLSWYDQEKRDLPWRRRAEDEMDLDRRAYAVWVSEVMLQQTQVATVINYYTGWMQKWPTLQDLASASLEEVNQLWAGLGYYSRGRRLQEGARKVVEELGGHMPRTAETLQQLLPGVGRYTAGAIASIAFGQATGVVDGNVARVLCRVRAIGADPSSTLVSQQLWGLAQQLVDPARPGDFNQAAMELGATVCTPQRPLCSQCPVESLCRARQRVEQEQLLASGSLSGSPDVEECAPNTGQCHLCLPPSEPWDQTLGVVNFPRKASRKPPREESSATCVLEQPGALGAQILLVQRPNSGLLAGLWEFPSVTWEPSEQLQRKALLQELQRWAGPLPATHLRHLGEVVHTFVHIKLTYQVYGLALEGQTPVTTVPPGARWLTQEEFHTAAVSTAMKKVFRVYQGQQPGTCMGSKRSQVSSPCSRKKPRMGQQVLDNFFRSHISTDAHSLNSAAQ [S419V] | -0.259
3 | MRKPRAAVGSGHRKQAASQEGRQKHAKNNSQAKPSACDGLARQPEEVVLQASVSSYHLFRDVAEVTAFRGSLLSWYDQEKRDLPWRRRAEDEMDLDRRAYAVWVSEVMLQQTQVATVINYYTGWMQKWPTLQDLASASLEEVNQLWAGLGYYSRGRRLQEGARKVVEELGGHMPRTAETLQQLLPGVGRYTAGAIASIAFGQATGVVDGNVARVLCRVRAIGADPSSTLVSQQLWGLAQQLVDPARPGDFNQAAMELGATVCTPQRPLCSQCPVESLCRARQRVEQEQLLASGSLSGSPDVEECAPNTGQCHLCLPPSEPWDQTLGVVNFPRKASRKPPREESSATCVLEQPGALGAQILLVQRPNSGLLAGLWEFPSVTWEPSEQLQRKALLQELQRWAGPLPATHLRHLGEVVHTFNHIKLTYQVYGLALEGQTPVTTVPPGARWLTQEEFHTAAVSTAMKKVFRVYQGQQPGTCMGSKRSQVSSPCSRKKPRMGQQVLDNFFRSHISTDAHSLNSAAQ [S419N] | -0.269
4 | MRKPRAAVGSGHRKQAASQEGRQKHAKNNSQAKPSACDGLARQPEEVVLQASVSSYHLFRDVAEVTAFRGSLLSWYDQEKRDLPWRRRAEDEMDLDRRAYAVWVSEVMLQQTQVATVINYYTGWMQKWPTLQDLASASLEEVNQLWAGLGYYSRGRRLQEGARKVVEELGGHMPRTAETLQQLLPGVGRYTAGAIASIAFGQATGVVDGNVARVLCRVRAIGADPSSTLVSQQLWGLAQQLVDPARPGDFNQAAMELGATVCTPQRPLCSQCPVESLCRARQRVEQEQLLASGSLSGSPDVEECAPNTGQCHLCLPPSEPWDQTLGVVNFPRKASRKPPREESSATCVLEQPGALGAQILLVQRPNSGLLAGLWEFPSVTWEPSEQLQRKALLQELQRWAGPLPATHLRHLGEVVHTFRHIKLTYQVYGLALEGQTPVTTVPPGARWLTQEEFHTAAVSTAMKKVFRVYQGQQPGTCMGSKRSQVSSPCSRKKPRMGQQVLDNFFRSHISTDAHSLNSAAQ [S419R] | -0.334
5 | MRKPRAAVGSGHRKQAASQEGRQKHAKNNSQAKPSACDGLARQPEEVVLQASVSSYHLFRDVAEVTAFRGSLLSWYDQEKRDLPWRRRAEDEMDLDRRAYAVWVSEVMLQQTQVATVINYYTGWMQKWPTLQDLASASLEEVNQLWAGLGYYSRGRRLQEGARKVVEELGGHMPRTAETLQQLLPGVGRYTAGAIASIAFGQATGVVDGNVARVLCRVRAIGADPSSTLVSQQLWGLAQQLVDPARPGDFNQAAMELGATVCTPQRPLCSQCPVESLCRARQRVEQEQLLASGSLSGSPDVEECAPNTGQCHLCLPPSEPWDQTLGVVNFPRKASRKPPREESSATCVLEQPGALGAQILLVQRPNSGLLAGLWEFPSVTWEPSEQLQRKALLQELQRWAGPLPATHLRHLGEVVHTFTHIKLTYQVYGLALEGQTPVTTVPPGARWLTQEEFHTAAVSTAMKKVFRVYQGQQPGTCMGSKRSQVSSPCSRKKPRMGQQVLDNFFRSHISTDAHSLNSAAQ [S419T] | -0.177
6 | MRKPRAAVGSGHRKQAASQEGRQKHAKNNSQAKPSACDGLARQPEEVVLQASVSSYHLFRDVAEVTAFRGSLLSWYDQEKRDLPWRRRAEDEMDLDRRAYAVWVSEVMLQQTQVATVINYYTGWMQKWPTLQDLASASLEEVNQLWAGLGYYSRGRRLQEGARKVVEELGGHMPRTAETLQQLLPGVGRYTAGAIASIAFGQATGVVDGNVARVLCRVRAIGADPSSTLVSQQLWGLAQQLVDPARPGDFNQAAMELGATVCTPQRPLCSQCPVESLCRARQRVEQEQLLASGSLSGSPDVEECAPNTGQCHLCLPPSEPWDQTLGVVNFPRKASRKPPREESSATCVLEQPGALGAQILLVQRPNSGLLAGLWEFPSVTWEPSEQLQRKALLQELQRWAGPLPATHLRHLGEVVHTFWHIKLTYQVYGLALEGQTPVTTVPPGARWLTQEEFHTAAVSTAMKKVFRVYQGQQPGTCMGSKRSQVSSPCSRKKPRMGQQVLDNFFRSHISTDAHSLNSAAQ [S419W] | -0.75
7 | MRKPRAAVGSGHRKQAASQEGRQKHAKNNSQAKPSACDGLARQPEEVVLQASVSSYHLFRDVAEVTAFRGSLLSWYDQEKRDLPWRRRAEDEMDLDRRAYAVWVSEVMLQQTQVATVINYYTGWMQKWPTLQDLASASLEEVNQLWAGLGYYSRGRRLQEGARKVVEELGGHMPRTAETLQQLLPGVGRYTAGAIASIAFGQATGVVDGNVARVLCRVRAIGADPSSTLVSQQLWGLAQQLVDPARPGDFNQAAMELGATVCTPQRPLCSQCPVESLCRARQRVEQEQLLASGSLSGSPDVEECAPNTGQCHLCLPPSEPWDQTLGVVNFPRKASRKPPREESSATCVLEQPGALGAQILLVQRPNSGLLAGLWEFPSVTWEPSEQLQRKALLQELQRWAGPLPATHLRHLGEVVHTFQHIKLTYQVYGLALEGQTPVTTVPPGARWLTQEEFHTAAVSTAMKKVFRVYQGQQPGTCMGSKRSQVSSPCSRKKPRMGQQVLDNFFRSHISTDAHSLNSAAQ [S419Q] | -0.333
8 | MRKPRAAVGSGHRKQAASQEGRQKHAKNNSQAKPSACDGLARQPEEVVLQASVSSYHLFRDVAEVTAFRGSLLSWYDQEKRDLPWRRRAEDEMDLDRRAYAVWVSEVMLQQTQVATVINYYTGWMQKWPTLQDLASASLEEVNQLWAGLGYYSRGRRLQEGARKVVEELGGHMPRTAETLQQLLPGVGRYTAGAIASIAFGQATGVVDGNVARVLCRVRAIGADPSSTLVSQQLWGLAQQLVDPARPGDFNQAAMELGATVCTPQRPLCSQCPVESLCRARQRVEQEQLLASGSLSGSPDVEECAPNTGQCHLCLPPSEPWDQTLGVVNFPRKASRKPPREESSATCVLEQPGALGAQILLVQRPNSGLLAGLWEFPSVTWEPSEQLQRKALLQELQRWAGPLPATHLRHLGEVVHTFMHIKLTYQVYGLALEGQTPVTTVPPGARWLTQEEFHTAAVSTAMKKVFRVYQGQQPGTCMGSKRSQVSSPCSRKKPRMGQQVLDNFFRSHISTDAHSLNSAAQ [S419M] | -0.561
9 | MRKPRAAVGSGHRKQAASQEGRQKHAKNNSQAKPSACDGLARQPEEVVLQASVSSYHLFRDVAEVTAFRGSLLSWYDQEKRDLPWRRRAEDEMDLDRRAYAVWVSEVMLQQTQVATVINYYTGWMQKWPTLQDLASASLEEVNQLWAGLGYYSRGRRLQEGARKVVEELGGHMPRTAETLQQLLPGVGRYTAGAIASIAFGQATGVVDGNVARVLCRVRAIGADPSSTLVSQQLWGLAQQLVDPARPGDFNQAAMELGATVCTPQRPLCSQCPVESLCRARQRVEQEQLLASGSLSGSPDVEECAPNTGQCHLCLPPSEPWDQTLGVVNFPRKASRKPPREESSATCVLEQPGALGAQILLVQRPNSGLLAGLWEFPSVTWEPSEQLQRKALLQELQRWAGPLPATHLRHLGEVVHTFYHIKLTYQVYGLALEGQTPVTTVPPGARWLTQEEFHTAAVSTAMKKVFRVYQGQQPGTCMGSKRSQVSSPCSRKKPRMGQQVLDNFFRSHISTDAHSLNSAAQ [S419Y] | -0.503
10 | MRKPRAAVGSGHRKQAASQEGRQKHAKNNSQAKPSACDGLARQPEEVVLQASVSSYHLFRDVAEVTAFRGSLLSWYDQEKRDLPWRRRAEDEMDLDRRAYAVWVSEVMLQQTQVATVINYYTGWMQKWPTLQDLASASLEEVNQLWAGLGYYSRGRRLQEGARKVVEELGGHMPRTAETLQQLLPGVGRYTAGAIASIAFGQATGVVDGNVARVLCRVRAIGADPSSTLVSQQLWGLAQQLVDPARPGDFNQAAMELGATVCTPQRPLCSQCPVESLCRARQRVEQEQLLASGSLSGSPDVEECAPNTGQCHLCLPPSEPWDQTLGVVNFPRKASRKPPREESSATCVLEQPGALGAQILLVQRPNSGLLAGLWEFPSVTWEPSEQLQRKALLQELQRWAGPLPATHLRHLGEVVHTFSDIKLTYQVYGLALEGQTPVTTVPPGARWLTQEEFHTAAVSTAMKKVFRVYQGQQPGTCMGSKRSQVSSPCSRKKPRMGQQVLDNFFRSHISTDAHSLNSAAQ [H420D] | -0.651
11 | MRKPRAAVGSGHRKQAASQEGRQKHAKNNSQAKPSACDGLARQPEEVVLQASVSSYHLFRDVAEVTAFRGSLLSWYDQEKRDLPWRRRAEDEMDLDRRAYAVWVSEVMLQQTQVATVINYYTGWMQKWPTLQDLASASLEEVNQLWAGLGYYSRGRRLQEGARKVVEELGGHMPRTAETLQQLLPGVGRYTAGAIASIAFGQATGVVDGNVARVLCRVRAIGADPSSTLVSQQLWGLAQQLVDPARPGDFNQAAMELGATVCTPQRPLCSQCPVESLCRARQRVEQEQLLASGSLSGSPDVEECAPNTGQCHLCLPPSEPWDQTLGVVNFPRKASRKPPREESSATCVLEQPGALGAQILLVQRPNSGLLAGLWEFPSVTWEPSEQLQRKALLQELQRWAGPLPATHLRHLGEVVHTFSAIKLTYQVYGLALEGQTPVTTVPPGARWLTQEEFHTAAVSTAMKKVFRVYQGQQPGTCMGSKRSQVSSPCSRKKPRMGQQVLDNFFRSHISTDAHSLNSAAQ [H420A] | -0.146
12 | MRKPRAAVGSGHRKQAASQEGRQKHAKNNSQAKPSACDGLARQPEEVVLQASVSSYHLFRDVAEVTAFRGSLLSWYDQEKRDLPWRRRAEDEMDLDRRAYAVWVSEVMLQQTQVATVINYYTGWMQKWPTLQDLASASLEEVNQLWAGLGYYSRGRRLQEGARKVVEELGGHMPRTAETLQQLLPGVGRYTAGAIASIAFGQATGVVDGNVARVLCRVRAIGADPSSTLVSQQLWGLAQQLVDPARPGDFNQAAMELGATVCTPQRPLCSQCPVESLCRARQRVEQEQLLASGSLSGSPDVEECAPNTGQCHLCLPPSEPWDQTLGVVNFPRKASRKPPREESSATCVLEQPGALGAQILLVQRPNSGLLAGLWEFPSVTWEPSEQLQRKALLQELQRWAGPLPATHLRHLGEVVHTFSCIKLTYQVYGLALEGQTPVTTVPPGARWLTQEEFHTAAVSTAMKKVFRVYQGQQPGTCMGSKRSQVSSPCSRKKPRMGQQVLDNFFRSHISTDAHSLNSAAQ [H420C] | -0.465
